Source: publication PMC3936753

B1: RNA1/RNA2 (dsRNA)
RNA 1: GUGUAGUAAUCGUCCAUUGUGUCU
RNA 2: AGACACAAUGGACGAUUACUACAC
B2: RNA10 (ssRNA)
RNA: GUGUAGUAAUCGUCCAUUGUGUCU
B3: DNA1 (ssDNA)
DNA: GTGTAGTAATCGTCCATTGTGTCT
B4: RNA1 (ssRNA)
RNA: GUGUAGUAAUCGUCCAUUGUGUCU

What was measured:
MBP-VP5 [1] = target: T1, MBP-VP5 (Helicoverpa armigera cypovirus 5 …, UniProt Q3LTV8 1-380); test: EMSA; 10 pmol protein, 0.1 pmol probe; 25 mM HEPES-KOH pH 7.5, 100 mM NaCl, 10 ul, 30 min at room temperature; 2% agarose gel
MBP-VP5 [2] = target: T1, MBP-VP5; test: competition; vs HEX-RNA1, 5-100 fold excess, 2 pmol protein; 25 mM HEPES-KOH pH 7.5, 100 mM NaCl, 10 ul, 30 min at room temperature; 2% agarose gel
MBP-VP5 [3] = target: T1, MBP-VP5; test: EMSA; 10 pmol protein, 0.1 pmol probe; Hill coefficient ~1.499 (0.05-0.16 uM) and ~4.972 (0.2-0.48 uM); 25 mM HEPES-KOH pH 7.5, 100 mM NaCl, 10 ul, 30 min at room temperature; 2% agarose gel

Binder	binding result (MBP-VP5 [1])	also measured
B1	binds	
B2		binding result (MBP-VP5 [2]): binds
B3	binds	
B4		binding result (MBP-VP5 [3]): binds
